Results on one substance are retold here after patent publication US20250381244A1.

The target in this assay is Neuropilin-2 (human NRP-2), endogenous on U87MG, Jurkat and HUVEC cells (human) (UniProt O60462). Briefly: cell-based or functional assay.
Sequence of Neuropilin-2 (human NRP-2), endogenous on U87MG, Jurkat and HUVEC cells (human) (O60462 21-931 limits assumed): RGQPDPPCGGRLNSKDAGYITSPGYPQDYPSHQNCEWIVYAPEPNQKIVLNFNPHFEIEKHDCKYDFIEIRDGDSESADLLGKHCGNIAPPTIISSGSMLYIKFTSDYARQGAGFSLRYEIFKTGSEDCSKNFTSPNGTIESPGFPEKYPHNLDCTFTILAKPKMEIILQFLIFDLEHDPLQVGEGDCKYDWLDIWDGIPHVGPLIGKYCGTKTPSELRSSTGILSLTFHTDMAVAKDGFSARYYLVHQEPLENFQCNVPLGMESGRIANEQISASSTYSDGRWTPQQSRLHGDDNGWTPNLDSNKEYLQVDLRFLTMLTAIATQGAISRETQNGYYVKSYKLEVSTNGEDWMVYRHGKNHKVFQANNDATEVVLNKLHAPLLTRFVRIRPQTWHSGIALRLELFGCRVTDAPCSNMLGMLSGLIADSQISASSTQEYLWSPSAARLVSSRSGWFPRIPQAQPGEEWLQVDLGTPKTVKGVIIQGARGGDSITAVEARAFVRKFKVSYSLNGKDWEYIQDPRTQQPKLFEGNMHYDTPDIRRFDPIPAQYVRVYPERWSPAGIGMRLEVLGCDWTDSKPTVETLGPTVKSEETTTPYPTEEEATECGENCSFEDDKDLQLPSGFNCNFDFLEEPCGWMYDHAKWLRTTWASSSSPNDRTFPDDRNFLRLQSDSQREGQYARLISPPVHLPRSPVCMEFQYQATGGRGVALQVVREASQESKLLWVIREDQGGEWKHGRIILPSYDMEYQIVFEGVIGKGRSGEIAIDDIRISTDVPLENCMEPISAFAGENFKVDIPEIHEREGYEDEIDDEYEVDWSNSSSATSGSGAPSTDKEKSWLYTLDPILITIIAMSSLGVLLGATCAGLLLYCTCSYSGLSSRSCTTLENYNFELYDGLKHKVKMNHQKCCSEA

The substance “Human recombinant SEMA3F (full-length, His-Myc-tagged human SEMA3F, secreted by 293T cells and purified) (from UniProt Q13275 20-785) (ligand)” yielded an inhibition of DFO-induced VEGF promoter luciferase activity, U87MG cells of 43%; an inhibition of stress fiber formation (phalloidin staining), pcDNA3.1 control vector transfected U87MG cells of 90%; a reduction of hypoxia (1% O2)-induced VEGF promoter luciferase activity, U87MG cells of 44%; a suppression of RhoA activity (rhotekin pulldown), control pcDNA3.1-transfected U87MG cells of 88%.
